Data taken from patent publication US5674838A, “Hirudin derivatives and a process for their preparation” (Hoechst Aktiengesellschaft, priority 1994, dated 1997).
Values belong to the molecule of their own block, whether it stands above or below them.

Key:
[1] = molecular target: recombinantly obtained desulfato-Tyr63 hirudin (leech (Hirudo medicinalis), made recombinantly in yeast cells)
[2] = test system: Rhesus monkeys; assay: anticoagulatory effect following intravenous administration to Rhesus monkeys; format: in vivo
Excerpt: Amino acid analysis of the product conforms with the composition which is to be expected from the amino acid sequence. Edman sequence analysis indicates 2 N-terminal amino acid residues Leu(1) and Asn(37).

- transpeptidation at Tyr63; composition of the crude product by analytical HPLC [1]: 65.2%
Molecule: chymotrypsin (Merck, Darmstadt) (enzyme)

Molecule: (hirudin 1-63)-Thr(64)-Arg(65)-Arg(66)--OH [Example 3]
- anticoagulatory effect (activity compared with starting hirudin) ([2]; intravenous administration to Rhesus monkeys (1 mg/kg), test conditions per Jurgens 1952): virtually identical to that of the starting hirudin

B1: (hirudin 1-36)-Thr, (hirudin 37-65) (protein)
chain 1: LTYTDCTESGQNLCLCEGSNVCGQGNKCILGSDGEKT
chain 2: NQCVTGEGTPKPQSHNDGDFEEIPEEYLQ
- anticoagulatory effect (activity compared with starting hirudin) ([2]; intravenous administration to Rhesus monkeys, dose not given): virtually identical to that of the starting hirudin
